In patent US12441811B2, “Compositions and methods for treating serpin B13 disorders” (REGENTS OF THE UNIVERSITY OF MINNESOTA, priority 2019, dated 2025):
“Also recorded” adds a separate entry of the source.

Key:
Ngn3+ cells = test: Genetic lineage tracing of Ngn3+ cells; format: in vivo, mouse
Description: FIGS. 18A-18C. Genetic tracing of Ngn3^+ cells in the pancreas of healthy and diabetic adult mice treated with anti-serpinB13 mAb. (A) The protocol of mice treatment with streptozotocin (STZ), tamoxifen (TAM), and anti-serpinB13 mAb (or control Ab). Eight-week old Ngn3Cre^ERTR26^YFP mice were induced into diabetes with STZ (150 mg/kg) and genetically labelled with YFP to mark Ngn3^+ cells, using TAM one day after injection of STZ, and an additional three times every other day thereafter. The antibodies were injected every day for 7 days at 100 μg/injection during the first week after STZ treatment. (B) Quantitative analysis by IF microscopy of YFP^+ cells expressing insulin at two weeks following induction of diabetes with STZ. […] (C) Representative microscopic IF images of YFP^+insulin^+ cells depicted in (B). Data are presented as the mean±SEM. Ordinary one-way ANOVA with Sidak test. Scale bars, 10 μm. NS, not significant. αB13, anti-serpinB13 mouse mAb.
Linage tracing. In the developmental studies, the Rosa26^EYFP females were initially set up for overnight breeding with NgnCre^ERT males and the following morning examined for the presence of a vaginal plug to indicate embryonic day E0.5. On embryonic day E10.5, E11.5, E12.5 and 13.5, anti-serpinB13 mAb (or control Ab) was injected i.p. at a dose of 50 μg per animal per day (total dose of 200 μg). […]

[1] = tested on: Ngn3+ endocrine progenitor cells; test: Ngn3+ cells in embryonic pancreas explants (E12.5) cultured in vitro; format: cell-based, mouse; conditions: for number of CK19+ epithelial cells: E12.5 explants with mAb vs control Ab
Description: Isolation and culture of embryonic pancreas explants. The isolation and culture of embryonic pancreas explants was performed as described elsewhere, with minor modifications.
Processing of pancreatic tissue for immunofluorescence microscopy. The pancreatic tissues were isolated and fixed either overnight (adult pancreases), or for one hour (embryonic pancreas explants), in 2% PFA (pH 7.4), followed by a two-step saturation process: first in a 30% sucrose solution in PBS and then in optimal cutting temperature (OCT) compound. After complete saturation, the tissues were imbedded in OCT using Cryomold and then snap frozen in an ethanol/dry ice bath. The OCT blocks were serially cut through the entire organ to obtain representative sections every 600 μm (6 to 8 sections per adult pancreas), 50 μm (12 to 14 sections per E16.5 embryonic pancreas), 35 μm (10 to 12 sections per E14.5 embryonic pancreas), or 15 μm (10 to 12 sections per E12.5 embryonic pancreas cultured for 1 to 3 days). For the embryonic linage tracing experiments, three largest sections were taken for the analysis. For all other experiments involving immunofluorescence microscopy, all obtained sections were analyzed. […]
The sections from the pancreases of embryos at age E14.5 and E16.5, and newborn pups (OP), were stained with anti-Ngn3 antibody to determine the total number of endocrine progenitors cells for all sections per explant combined (FIG. 9G, FIG. 17A). Alternatively, the sections representing the pancreases of embryos at age E12.5 (which are considerably smaller) were stained with both anti-Ngn3 and anti-CK19 antibodies to determine the fraction of CK19-positive area that was occupied by Ngn3− positive staining (FIGS. 9D, 10A, 10C, 12D, 12G, 12J and FIGS. 15A, 20B). The following formula was used to adjust for any differences in the pancreas size: (Ngn3^+ cell number/μm^2 of CK19^+ cells)×10^5.
Image analysis. Embryonic images were processed with a plugin-Trainable Weka Segmentation v3.2.28 (Hamilton, New Zealand) for ImageJ v.1.52jv software. To classify and quantify the images in unbiased fashion, we defined the following four classes for the analysis: Ngn3^+ cells, the clusters of cytokeratin 19^+ cells, the negatively stained areas, and background (e.g., the area outside of tissue sample). Alternatively, the Visiopharm version 6.0 software (Visiopharm, Hoerholm, Denmark) with Author module was used to create applications to outline Ngn3^+ cells or double positive cells expressing YFP and insulin using preprocessing and postprocessing steps, when necessary. In addition, the Engine module of the Visiophram module was used to execute created applications and unbiasedly analyze the images. For the unbiased quantitative analysis of β-cells and islets in the whole pancreatic sections, Visiopharm Author module was trained to recognize insulin-positive β-cell clusters with diameter greater than 50 μm as well as negatively stained section area. In all studies involving microscopy the treatment assignments were blinded to investigators who performed data analysis.

B1: B29: mouse monoclonal antibody to serpin B13, clone B29; heavy chain SEQ ID NO:14, kappa light chain SEQ ID NO:16 (antibody, V domains shown)
VH: QIQLVQSGPELKKPGETVKISCKASGYTFTTYGMSWVKQAPGKGLKWMGWINTYSGMPTYADDFKGRFAFSLETSATTAYLQINNLKNEDTATYFCARPLLGLDYWGQGTTLTVSS
VL: DIVMTQTPLSLSVTIGQPASISCKSSQSLLHSDGKTFLNWFLQRPGQSPKLLIYLVSKLESGIPDRFSGSGSGTDFTLKISRVEVEDLGVYYCLQHTHFPLTFGAGTKLEIK
- transition from Ngn3 to insulin expression (YFP+insulin+ cells) (Ngn3+ cells; adult mice with STZ-induced pancreatic damage, 100 μg/injection for 7 days, listed as anti-serpinB13 mAb): also observed; also recorded: increase
- conversion of Ngn3+ cells to insulin-positive status (Ngn3+ cells; injection during gestation, YFP+insulin+ cells in embryos): enhanced conversion
- Ngn3+ cell population, upregulation by mAb ([1]; CatL-deficient embryonic pancreas explants, 48-hour culture): completely refractory to upregulation
- number of CK19+ epithelial cells [1]: remained unchanged
- number of CK19+ epithelial cells ([1]; listed as mAb): did not change
- number of Ngn3+ cells ([1]; E12.5 explants, antibody at 1 μg/mL vs control Ab): significant increase
